Consider 6 molecules from patent US11679121B2, “Morpholino oligonucleotides useful in cancer treatment” (United States Government As Represented By The Department …, priority 2018, dated 2023).

Data set [1] has as its system MGMT. As to the kind of experiment: Western blot of MGMT expression after ionizing-radiation-enhanced delivery of AMONs, without scrape-loading or transfection agents. The class given is cell-based, human. The procedure:
The ability of ionizing radiation to enhance the cytosolic delivery of AMONs in T98G glioma cell lines and suppress MGMT expression was assessed. T98 G cells were exposed to AMON SEQ ID NO: 2 alone, SEQ ID NO: 3 alone, or the combination of SEQ ID NO: 1, SEQ ID NO: 2 and SEQ ID NO: 3, one hour after exposure to 1 Gy of ionizing radiation. […] As with the use of scrape loading and lysosomal transfection agents, the inhibition of expression with radiation enhanced delivery of AMONS was transient, with peak inhibition at 3 days and restoration of MGMT expression by 7 days. Based on these findings a combination of sequences 1, 2 and 3 were used for further experiments.
To determine the optimal timing for exposure to AMON with respect to exposure to radiation, T98G cell lines were exposed to AMONs 2 hours and 1 hour before radiation as well as 1 and 24 hours after radiation exposure (FIG. 2B). The best inhibition was observed when cells were exposed to AMON 24 hours after radiation. This time line was adopted for further experiments. Different tumor cell lines required different doses of radiation to enhance delivery of AMON. Knockdown could be achieved in T98G cell lines at 1 Gy while H460 and A549 cell lines required exposure to 6-12 Gy for best results with no inhibition at lower doses of ionizing radiation (FIG. 2C).
Radiation delivery: cell culture: 10^6 cancer cells were exposed to different doses of radiation (0.5-12 Gy) at room temperature using a Philips gamma chamber (Philips Medical Systems, Andover, Mass.). After irradiation, cells were treated with mixtures of MGMT-morpholinos (SEQ ID NO: 1, SEQ ID NO: 2, SEQ ID NO: 3=1:1:1; v/v/v) at different time points and at a final concentration of 15 μM.
(§1) Cell viability assay and western blot analyses: Cell viability and proliferation was measured using the WST-1 Proliferation Assay Kit from Chemicon International Inc. (Temecula, Calif.). Cells or tissues were harvested and then washed with ice-cold PBS twice before the addition of RIPA lysis buffer containing protease and phosphatase inhibitors. Protein concentration was quantified using the Bio-Rad method. Equal amounts of protein were loaded into each well and separated by 7.5 or 12% SDS-PAGE gel followed by transfer onto polyvinylidene difluoride membranes (BioRad, Richmond, Calif.). Membranes were blocked using 5% nonfat dry milk or 2% bovine serum albumin (BSA) in PBS-T. The blots were then incubated with primary antibodies (1:200-1:1,000) overnight at 4° C. Secondary antibody (1:5,000; Cell signaling technology, Danvers, Mass.) was incubated for 2 h at room temperature. Immunoblots were developed using the chemiluminescence detection system (Thermo Scientific, Waltham, Mass.) according to the manufacturer's protocol and autoradiography. Quantification of immunoblotting signal of respective proteins was performed using UN-SCAN-IT Gel software (Silk Scientific, Inc., Orem, Utah).

The test system of data set [2] is MGMT. As to the kind of experiment: Western blot of MGMT expression in tumor cell lines after scrape-loading or transfection-agent delivery of AMONs. The data set is classed as cell-based, human. The procedure:
The ability of each of three AMONs (SEQ ID NO: 1, SEQ ID NO: 2, and SEQ ID NO: 3) to inhibit MGMT expression in tumor cell lines was assessed. Three MGMT expressing solid tumor cell lines (T98G Glioma, H460 and A549 non-small-cell-lung cancer cell lines) were transduced with AMONs using a scrape-loading technique (Partridge M et al, Antisense Nucleic Acid Drug Dev 6, 169-175 (1996); incorporated by reference herein). […] This was replicated in H460 and A549 NSCLC lines.
[…] transfection agents were also used to introduce the AMONs into the cells and produced similar results (FIG. 1B). MGMT silencing was not achieved when cells were exposed to AMONS without scrape-loading or liposomal transfection agents (controls).
Cells were maintained at 37° C. and in an atmosphere containing 5% CO2. Three MGMT antisense oligonucleotide sequences: SEQ ID NO: 1-5′-[…]-3′; SEQ ID NO: 2-5′-[…]-3′; SEQ ID NO: 3-5′-[…]-3′ and one non-specific control sequence: SEQ ID NO: 4-5′-[…]-3′ were synthesized and purchased from Gene Tools, LLC (Philomath, Oreg., USA). Mouse anti-tubulin antibody (T9026) was purchased from Sigma (St. Louis, Mo., USA). Anti-MGMT (#2739), caspase 3 (#9662) and phospho-p53 (Ser15) (#9284) antibodies were purchased from Cell Signaling (Danvers, Mass., USA). Mouse anti-dynamin II (sc-166526) monoclonal antibody was purchased from Santa Cruz Biotechnology (Santa Cruz, Calif., USA).
Delivery of MGMT-morpholino in vitro into the cancer cells: Scrape delivery: 10^6 cancer cells were seeded on a 10-cm culture plate. The culture plate was placed on a flat surface and the cells scraped off the surface with a sterile cell scraper. Different doses or combinations of MGMT-morpholinos were added to the cells. Scraped cell suspensions were pipetted up and down twice and transferred to another culture plate.
Transfection agent delivery: 10^6 cancer cells were seeded in 10-cm culture plate. Cells were treated with transfection agent DharmaFECT (GE Dharmacon; Lafayette, Colo., USA) and MGMT-morpholinos mixture (1:1; v/v).
as §1
A general note: Immunoblotting shows a protein as a band on a membrane.

The subject of a further data set is T98G cells. In words: Temozolamide cytotoxicity after radiation and AMONs (Western blot of phosphorylated-p53 and caspase 3). The class given is cell-based, human. To be noted: for Susceptibility of cells to temozolamide (phosphorylated-p53, caspase 3): T98G, AMONs 1 day after 1 Gy, 75 or 150 μg/ml temozolamide two days later, lysates 1 and 4 days, FIG. 3. The procedure: FIG. 3 is a flow chart of an experimental model that includes treatment of cells with radiation, morpholino oligonucleotides of SEQ ID NO: 1, SEQ ID NO: 2, and SEQ ID NO: 3, and 75 or 150 μg/ml temozolamide as indicated.
MGMT expressing glioma cell lines such as T98G are known to be resistant to the cytotoxic effects of temozolomide (Yoshino A et al, Int J Oncol 36, 1367-1377 (2010); incorporated by reference herein). AMONs were administered 1 day after exposure of the T98G cells to 1 Gy of radiation and 75 or 150 μg/ml temozolamide administered two days after administration of the AMONs. Whole cell lysates were then collected 1 and 4 days after exposure to the temozolamide and a Western blot using antibodies specific for the indicated proteins performed.
as §1

The next data set deals with T98G. As to conditions: Yoshino A et al 2010; cited from earlier work.
The test system of data set [3] is MGMT. In words: Subcutaneous H460 xenograft tumors in athymic nude rats: local radiation plus iv AMON, Western blot of MGMT in tumor lysates. The data set is classed as in vivo, human. Here is the method: Due to the inconsistent growth of intracranial T98G cell lines, subcutaneous H460 NSCCL tumors in athymic nude rats were studied. 2.5×10^7 H460 cells were subcutaneously injected in each of their hind limbs of 6 animals. When the tumor reached 10 mm in diameter, a single dose of 5 Gy of ionizing radiation was delivered to the tumor field. AMON was administered intravenously (iv) through the femoral vein 24 hours after radiation. Tumors were harvested 3 days after exposure to AMONs.
Delivery of MGMT-morpholino in vivo: Female (200-250 g) nude (mu/rnu) and heterozygous (rnu/wt) rats were selected from the breeding colony maintained in the animal facility. For subcutaneous tumor model, a total of 2.5×10^7 cells were mixed (ratio 1:1; v/v) with Matrigel Basement Membrane Matrix (BD Biosciences, Bedford, Mass.), and the mixture was injected subcutaneously into both left and right hind legs. At d 7 after inoculation, right SQ tumor was exposed to single dose of radiation (5 Gy) with shielding the rest of body using a Philips gamma chamber (Philips Medical Systems, Andover, Mass.), and left SQ tumor of the same animal without radiation was served as control. A total of 30 mM MGMT-morpholinos SEQ ID NO: 1, SEQ ID NO: 2, SEQ ID NO: 3=1:1:1; v/v/v) was administered intravenously 24 h after irradiation. Tissues (SQ tumors, brain, liver, spleen and kidney) were harvested 3 days after morpholinos and subjected to further protein and DNA analysis.
Cell viability assay and western blot analyses: Cell viability and proliferation was measured using the WST-1 Proliferation Assay Kit from Chemicon International Inc. (Temecula, Calif.). Cells or tissues were harvested and then washed with ice-cold PBS twice before the addition of RIPA lysis buffer containing protease and phosphatase inhibitors. Protein concentration was quantified using the Bio-Rad method. […] Quantification of immunoblotting signal of respective proteins was performed using UN-SCAN-IT Gel software (Silk Scientific, Inc., Orem, Utah).

For the next data set, the system named is MGMT gene. In words: MGMT-gene methylation status of subcutaneous tumors by pyrosequencing. The class given is in vivo, human. As to conditions: after implantation, radiation or AMONs. Here is the method: Measurement of MGMT DNA methylation status: Subcutaneous xenograft tumor DNA was isolated using DNeasy Blood & Tissue Kit from Qiagen International (Germantown, Md., USA). In order to assure the quality and purity of DNA samples, the ratio of A260/A280 was determined and recorded samples was above 1.9. The percentage methylation status of MGMT DNA at CpG islands in samples were measured at using pyrosequening.

Where [4] appears, read: T98G cells, AMON one hour after 1 Gy ionizing radiation, lysates 3 and 7 days, FIG. 2A.
Where [5] appears, read: T98G cells, scrape-loading and liposomal transfection agents.
The mark [6] stands for this setting: T98G cells, scrape-loading, FIG. 1A.

Entries after “also recorded” stand apart in the source; their conditions may differ. Bounds are passed on as bounds.

Consider “5′-ATTCCTTCACGGCCAGTCCTT-3′ (morpholino, chemistry not fully specified) [SEQ ID NO: 3]”, for which the “Inhibition of MGMT expression (Western blot)” value is “inhibition of MGMT” in the data set with MGMT [1] (setting [4]); “transient; also recorded: inhibition of MGMT” in the data set on MGMT [2] (T98G cells, scrape delivery or lipofectamine/liposomal transfection, lysates 3 and 7 days after treatment, FIG. 1C); “most effective in silencing MGMT expression; also recorded: inhibition of MGMT expression” with MGMT [2] (setting [6]). Also, the “Time of best inhibition of MGMT expression” value in the data set with MGMT [2] (setting [5]) came to 3 days. Also, in the data set with MGMT [2] (setting [5]), the “Time of restoration of MGMT expression” value is on record as no more than 7 days.
“5′-TTCCATAACACCTGTCTGGTT-3′ (morpholino, chemistry not fully specified) [SEQ ID NO: 2]”: the “Inhibition of MGMT expression (Western blot)” value with MGMT [2] (setting [6]) is “most effective in silencing MGMT expression; also recorded: inhibition of MGMT expression”.
Still for that read-out and setting: then “5′-TTTCGTGCAGACCCTGCTCTT-3′ (all phosphorodiamidate morpholino (PMO)) [SEQ ID NO: 1]”, with “inhibition of MGMT expression”.
For `Cn1nnc2c(C(N)=O)ncn2c1=O` [temozolomide, reference compound], the “Dose dependence of enhanced cytotoxic effects” value in the data set on T98G cells (T98G after 1 Gy and AMONs, 75 and 150 μg/mL) is “dose dependent”. In addition, in the data set with T98G, the “Cytotoxic effects on MGMT expressing glioma cell lines” value was “resistant”.
For “SEQ ID NO: 2 and SEQ ID NO: 3: combination of morpholino oligonucleotides of SEQ ID NO: 2 and SEQ ID NO: 3 (chain 1 TTCCATAACACCTGTCTGGTT; chain 2 ATTCCTTCACGGCCAGTCCTT; morpholino, chemistry not fully specified)”, the “Inhibition of MGMT expression (Western blot)” value in the data set with MGMT [1] (setting [4]) is “inhibition of MGMT”.

B1: combination of SEQ ID NO: 1, SEQ ID NO: 2 and SEQ ID NO: 3: mixture of MGMT-morpholinos SEQ ID NO: 1, SEQ ID NO: 2, SEQ ID NO: 3 = 1:1:1 v/v/v; used for experiments after b163 (nucleic acid)
chain 1: TTTCGTGCAGACCCTGCTCTT
chain 2: TTCCATAACACCTGTCTGGTT
chain 3: ATTCCTTCACGGCCAGTCCTT
modifications: morpholino mixture, chemistry not fully specified
notes: used for experiments after b163
Take B1: in the data set on MGMT [1] (H460 and A549 cell lines), the “Radiation dose required for best results (knockdown)” value is reported as 6-12 Gy. Besides, in the data set on MGMT [1] (H460 and A549 cell lines, doses below 6-12 Gy), the “Inhibition of MGMT expression at lower doses of ionizing radiation” value is on record as “no inhibition”. The “Radiation dose at which knockdown could be achieved” value in the data set on MGMT [1] (T98G cell lines) stood at 1 Gy. Besides, the “Inhibition of MGMT expression (Western blot)” value with MGMT [1] (T98G cells, 24 hours after exposure to the dose of radiation indicated, FIG. 2C) is “inhibition of MGMT”; with MGMT [1] (T98G cells, AMON one hour after 1 Gy ionizing radiation, lysates 3 and 7 days, FIG. 2A, SEQ ID NO: 2, and SEQ ID NO: 3), “inhibition of MGMT”; with MGMT [1] (T98G cells, AMON one hour after 1 Gy ionizing radiation, lysates 3 and 7 days, FIG. 2A, listed as combination of sequences 1, 2 and 3) it was “most effective at inhibiting MGMT expression”; in the data set with MGMT [1] (T98G cells, treated before or after exposure to 1 Gy radiation, FIG. 2B), “inhibition of MGMT”; in the data set on MGMT [2] (H460 NSCLC cells, transfection agents, 6 μM and 15 μM, FIG. 1B) it was “inhibition of MGMT expression”; in the data set with MGMT [2] (setting [6]), “most effective in silencing MGMT expression”. In the data set with MGMT [2] (T98G cells, scrape-loading, FIG. 1A, SEQ ID NO: 2, and SEQ ID NO: 3), the “Inhibition of MGMT expression (Western blot)” value is given as “inhibition of MGMT expression”. Also, the “Time of exposure to AMON after radiation that gave the best inhibition” value in the data set with MGMT [1] (T98G cells, tested 2 h and 1 h before, 1 and 24 h after radiation) worked out at 24 h. The “Inhibition of MGMT expression in tumors (Western blot)” value in the data set on MGMT [3] (H460 subcutaneous control tumors, systemic AMON but no radiation) is reported as “not seen”; with MGMT [3] (H460 subcutaneous tumors, 5 Gy to tumor 24 hours before iv AMON, harvested 3 days after) it was “inhibition of MGMT expression was achieved”; with MGMT [3] (H460 subcutaneous tumors, 5 Gy to tumor 24 hours before iv AMON, harvested 3 days after, listed as combination of morpholino oligonucleotides of SEQ ID NO: 1, SEQ ID NO: 2, and SE), “inhibition of MGMT expression”. In addition, in the data set on MGMT gene, the “Changes in MGMT-gene methylation status” value is on record as “No significant changes”. Besides, the “Susceptibility of cells to temozolamide (phosphorylated-p53, caspase 3)” value is “susceptible to temozolomide” with T98G cells; “enhanced cytotoxic effects of temozolamide” in the data set with T98G cells (listed as morpholino oligonucleotides of SEQ ID NO: 1, SEQ ID NO: 2, and SEQ ID NO: 3).
